B1: scFv1: tilapia-derived single-chain antibody fragment with high affinity for TiLV, from phage library (protein)
scFv: MSHRLTCAYSGFSSDIHAVWVRQAAGKGLEWIAYISDSSAYIYYSQSVRGRFTISRDNSRKQVYLQMNSLTTEDSAVYYCTREGSGFAFDYWGKGTGGGGSGGGGSGGGGSVTISATGSSNIGADLSWYLQKTGETPKLLIYKASTRSSGTPPRFSGSTSGSQYTLTISGVQAEDAGDYYCLGDHGGGALTFGGGTK
modifications: left off: 6×His, end not stated, kept | thioredoxin (from the vector pET32a), end not stated, state not stated

Columns and labels:
TiLV-positive antibody = experiment: Depletion of TiLV-positive antibodies by epitope peptides (ELISA); type: binding, tilapia; conditions: TiLV-positive antibody diluted 800-fold, 10 depletion cycles
Protocol: The epitope peptide to be detected was coated on the ELISA plate at 37°C for 2 h. After washing with PBST, it was blocked with 2% skim milk powder for 2 h to reduce non-specific binding. The TiLV-positive antibody was diluted 800-fold and added to the wells at 100 µL per well. After incubation at room temperature for 20 min, the liquid was aspirated. The ELISA plate was briefly washed, and then, the serum was added again. This process was repeated 10 times, and then, the serum was collected. An ELISA was performed on the collected serum to detect the level of tilapia IgM. Blank and non-depleted negative controls were set up in the experiment. The depletion rate was calculated as follows: Depletion rate = (OD450 of non-depleted sample − OD450 of detected sample) / OD450 of non-depleted sample × 100%.

scFv1 = experiment: Western blot, binding of S3 epitope peptide and mutants to GST-scFv1; parameters: species or system Nile tilapia (Oreochromis niloticus); conditions: PVDF membrane with GST-scFv1 incubated with S3 proteins 37°C 2 h; 6×His tag antibody
Protocol: The PET-N-GST-scFv1 plasmid was constructed using seamless cloning technology (Vazyme), and the protein was obtained through a prokaryotic expression system. The scFv1 protein was purified using GST resin (Beyotime) and stored after lyophilization. Similarly, S3-WT, S3-MuT-^Y386^A, S3-MuT-^R393^A, S3-MuT-^L398^A, and S3-MuT were expressed in prokaryotes using the pET32a plasmid. In the Western blot experiment, after blocking, the PVDF membrane containing GST-scFv1 blots was incubated with each of the five S3 proteins at 37°C for 2 h. Subsequently, the anti-6×His tag mouse mAb was used as the primary antibody, and HRP-conjugated goat anti-mouse IgG was used as the secondary antibody. The ECL color development steps were performed as described above.

tilapia IgM = experiment: Serum antibody levels of tilapia after immunization with epitope peptides (ELISA); type: in vivo, Nile tilapia (Oreochromis niloticus); conditions: 20 µg peptide i.m. with Freund's adjuvant, 7-28 days
Excerpt: Epitope vaccines usually need to be modified with Freund’s adjuvant (Beyotime) before immunization. Briefly, for a single immunization, the epitope peptide is mixed with an equal dose of complete Freund’s adjuvant and then administered to tilapia. For booster immunization, an equal dose of incomplete Freund’s adjuvant is fused with the epitope peptide before vaccination. For the S1, S3, and S10 epitope vaccine immunization programs, healthy Oreochromis niloticus were divided into six groups (70 fish per group) and vaccinated with 20 µg of peptide vaccine by intramuscular injection. During the 1–4 week immunization period, we collected four fish serum samples weekly for immunological analysis.
In the immunization experiments based on the P30-designed vaccine, healthy Nile tilapia were divided into four groups (70 fish per group) and injected intramuscularly with 20 µg of peptide vaccine to complete the primary immunization. After 14 days, the same dose of vaccine was administered again to complete the booster immunization. Serum and tissue samples were collected from 4 fishes in each group weekly after the primary immunization, for a total of 6 weeks. Furthermore, a PBS control was incorporated into both immunization experiments, and the immunization process was conducted in accordance with the aforementioned methodology.
Serum antibody levels after immunization were determined by indirect ELISA. Specifically, serum samples were diluted appropriately, coated to enzyme-labeled plates, and incubated overnight at 4°C. After being washed three times with PBST buffer, each well was incubated with mouse anti-tilapia IgM mAb (1:5,000) at 37°C for 1 h. After washing, each well was incubated with HRP-conjugated goat anti-mouse IgG (1:5,500) for an additional hour. Color development was carried out as described above.

TiLV [1] = experiment: In vivo protection study of scFv1 against TiLV infection in tilapia; parameters: species or system Nile tilapia (Oreochromis niloticus); conditions: scFv1 10 μg/g i.p. 12 h after TiLV
Protocol: Healthy Nile tilapia (Oreochromis niloticus) with a body weight of approximately 3.2±0.6 g were selected. After being temporarily cultured in a circulating water aquaculture system, they were randomly divided into a neutralization experimental group, a virus control group, and a BSA control group, with 30 fish in each group. In the experimental group, 50 μL of TiLV virus suspension (8×10^3 copies/μL) was injected intraperitoneally. Twelve hours later, a solution of scFv1 diluted in PBS at a dose of 10 μg/g was injected intraperitoneally. In the BSA control group, after injecting the same dose of TiLV, BSA solution of the same concentration was used instead of the scFv1. In the virus control group, only virus was injected. Meanwhile, a blank control was set up. After the injection, the mortality of tilapia was observed and recorded continuously for 10 days, and the cumulative mortality rate was calculated.

TiLV [2] = experiment: Cellular fluorescence analysis of binding between scFv1 and TiLV in CIK cells; type: cell-based; conditions: GST-scFv1 incubated 24 h with TiLV-infected CIK cells
Protocol: After being cultured for 48 h, CIK cells grew into a monolayer and were then continuously incubated with TiLV virus at 28°C for 72 h. Subsequently, the culture medium was replaced, and the cells were incubated with GST-scFv1 protein for 24 h to ensure binding to TiLV particles. The cells were fixed with 4% paraformaldehyde at room temperature for 10 min and then incubated with immunostaining permeabilization buffer with Triton X-100 for 10 min. Subsequently, the GST mouse mAb (1:500, Beyotime) was used as the primary antibody and incubated with CIK cells at 4°C overnight, and FITC-labeled goat anti-mouse IgG (1:500, Beyotime) was used as the secondary antibody. After DAPI staining, the cells were observed under a fluorescence microscope. Cells that were not incubated with GST-scFv1 protein served as the control.

TiLV [3] = experiment: Indirect ELISA, affinity of scFv for TiLV; type: binding, tilapia lake virus (TiLV)
Protocol: The scFv affinity assay was performed by indirect ELISA. The virus (4 × 10^3 copies/μL) was incubated overnight at 4°C after being coated in the wells. After blocking with 5% skim milk, 100 µL of scFv1 and scFv3 proteins at the same concentrations (0.01–100 μg/mL) were added and incubated. Meanwhile, BSA proteins with the same concentration gradient were used as controls. The primary and secondary antibodies were 6×His tag mouse mAb and HRP-conjugated goat anti-mouse IgG, respectively, following the previous protocol. The color development and readings were performed as described above. The scFvs obtained from both the prokaryotic and eukaryotic expression systems were verified for their affinity to TiLV. Meanwhile, the BSA protein was used as a negative control.

| Molecule | TiLV-positive antibody depletion rate (TiLV-positive antibody) [%] | binding to GST-scFv1 by Western blot (scFv1) | immunogenicity (serum antibody titer) after single immunization (tilapia IgM) | increase of the survival rate of TiLV-infected tilapia (TiLV [1]) [%] | binding to TiLV on infected CIK cells (green fluorescence) (TiLV [2]) | EC50 of the scFv expressed in CHO cells that binds to TiLV (TiLV [3]; indirect ELISA, scFv from CHO expression system) [µg/mL] | EC50 for the binding of scFv to TiLV (TiLV [3]; indirect ELISA, scFv from prokaryotic expression, coated virus 4 × 10^3 copies/μL, scFv 0.01–100 μg/mL) [µg/mL] | EC50 of scFv1 fold lower than that of scFv3 (TiLV [3]; prokaryotic expression, binding to TiLV) [fold] |
| --- | --- | --- | --- | --- | --- | --- | --- | --- |
| GYQLASEIRGTIPLSS [S3WT] | ~70 | able to bind | highest immunogenicity |  |  |  |  |  |
| B1 |  |  |  | ~30 | had bound to TiLV | 2.098 | 33.06 | 3.22 |

Reference: publication PMC12724136, “Design of antibody structure-guided epitope vaccines in silico to induce potent immune responses against emerging viruses” (Journal of Virology, 2025)
